# Results published in patent US20100068742.
# Entries after “also recorded” stand apart in the source; their conditions may differ.
# Legend:
# [1] = test system: LRRKtide with -2Tyr mutated to Glu
# [2] = test system: LRRKtide with the +2 residue mutated to Pro
# [3] = test system: T1, LRRKtide peptide (RLGRDKYKTLRQIRQ)
# T1 sequence: RLGRDKYKTLRQIRQ
# [4] = test system: Nictide with +1Leu mutated to Pro
# [5] = test system: LRRKtide with +2Arg mutated to Ala
# [6] = test system: LRRKtide with +1Leu mutated to Ala
# [7] = test system: Nictide with -4Trp mutated to Ala
# [8] = test system: Nictide with -5Trp mutated to Ala
# [9] = test system: LRRKtide with the +5 residue mutated to Glu
# [10] = test system: Nictide with the phosphorylated Thr mutated to Ser
# [11] = test system: Nictide with Thr residues at both the -2 and +2 positions
# [12] = test system: Nictide with -1 Tyr mutated to Ala
# [13] = test system: LRRKtide with -4 (Asp) mutated to Ala
# [14] = test system: LRRKtide with the +5 residue mutated to Pro
# [15] = test system: Nictide with +2 Arg mutated to Ala
# [16] = test system: LRRKtide with the +2 residue mutated to Glu
# [17] = test system: Nictide peptides with combined -5, -4 and -1 mutations
# [18] = test system: LRRKtide with -2Tyr mutated to Arg
# [19] = test system: Nictide with Thr introduced at the +2 position
# [20] = test system: LRRKtide with +5Arg mutated to Ala
# [21] = test system: LRRKtide with -2Tyr mutated to Ala
# [22] = test system: Nictide with Thr introduced at the -2 position
# [23] = test system: T2, Nictide (RLGWWRFYTLRRARQGNTKQR)
# T2 sequence: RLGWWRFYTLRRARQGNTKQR
# [24] = test system: LRRKtide with -5Arg mutated to Ala
substance,measurement,setting,value
GST-LRRK2 1326-2527 [G2019S],fold decrease of Vmax against wild type LRRKtide,[1],-2 Tyr (2 to 10-fold)
same,fold increase of Km against wild type LRRKtide,[1],increased Km 4.4-fold
same,Km against wild type LRRKtide,[2],increased Km similarly to the Ala mutation
same,fold decrease of Vmax against wild type LRRKtide,[2],+2 Arg (4 to 28-fold)
same,Km of peptide phosphorylation,[3],Km of 200 µM
same,Vmax of peptide phosphorylation,[3],Vmax of 14 U/mg
same,Km against Nictide,[4],without affecting Km
same,fold decrease of Vmax against Nictide,[4],only decreased Vmax of LRRK2 phosphorylation under 2-fold
same,fold decrease of Vmax against wild type LRRKtide,[5],+2 Arg (4 to 28-fold)
same,fold increase of Km against wild type LRRKtide,[5],+2Arg (4.5-fold)
same,fold decrease of Vmax against wild type LRRKtide,[6],+1Leu (2-fold)
same,peptide phosphorylation,[6],had no effect on LRRK2 phosphorylation
same,fold decrease of Vmax against Nictide,[7],decreased the Vmax value of phosphorylation 2 to 5-fold
same,fold increase of Km against Nictide,[7],increased Km values 2 to 3-fold
same,fold increase of Vmax against Nictide,[7],enhanced Vmax of LRRK2 phosphorylation ~2-fold
same,fold increase of Km against Nictide,[8],increasing the Km value 3-fold
same,fold increase of Vmax against Nictide,[8],enhanced Vmax of LRRK2 phosphorylation ~2-fold
same,Km against wild type LRRKtide,[9],increased Km similarly to the Ala mutation
same,fold decrease of Vmax against wild type LRRKtide,[9],+5 Arg (mutation to Glu 4-fold)
same,peptide phosphorylation,[10],almost abolished phosphorylation of the peptide by LRRK2
same,fold increase of Km against Nictide,[11],increased Km value of over 10-fold
same,fold increase of Km against Nictide,[12],increased Km values 2 to 3-fold
same,fold increase of Vmax against Nictide,[12],enhanced Vmax of LRRK2 phosphorylation ~2-fold
same,fold decrease of Km against wild type LRRKtide,[13],decreasing Km 2.3-fold
same,Km against wild type LRRKtide,[14],increased Km similarly to the Ala mutation
same,fold decrease of Vmax against Nictide,[15],decreased the Vmax value of phosphorylation 2 to 5-fold
same,Km against wild type LRRKtide,[16],increased Km similarly to the Ala mutation
same,fold decrease of Vmax against wild type LRRKtide,[16],+2 Arg (4 to 28-fold)
same,fold increase of Km against Nictide,[17],the Km values were substantially increased 5 to 20-fold compared to Nictide
same,Km against wild type LRRKtide,[18],slightly decreased Km
same,fold decrease of Vmax against wild type LRRKtide,[18],-2 Tyr (2 to 10-fold)
same,Km and Vmax against Nictide,[19],moderately increased the Km and reduced the Vmax value
same,fold increase of Km against wild type LRRKtide,[20],+5Arg (4-fold)
same,fold decrease of Vmax against wild type LRRKtide,[21],-2 Tyr (2 to 10-fold)
same,fold increase of Km against wild type LRRKtide,[21],-2Tyr (2.4-fold)
same,Km and Vmax against Nictide,[22],moderately increased the Km and reduced the Vmax value
same,Km of peptide phosphorylation,[23],Calculated Km values are 6micromolar for Nictide; also recorded: Km of 10 µM
same,Vmax of peptide phosphorylation,[23],Vmax of 26 U/mg
same,fold decrease of Km against LRRKtide,[23],20-fold lower than LRRKtide
same,fold increase of Vmax against LRRKtide,[23],1.7-fold higher than LRRKtide
same,fold increase of Km against wild type LRRKtide,[24],-5Arg (2.5 fold)
same,phosphorylation of GST fusion proteins (32P autoradiography),GST-Nictide,phosphorylated to a significantly greater extent by LRRK2 than the other GST-fusion proteins
